Results published in PMC3561948.
Where “and” joins values, the source holds several entries; their conditions need not be identical. Equal values may be shown once.

Tests used:
[1] = biological target: Mos1 transposase (containing the solubilizing mutation T216A), hydrogenated (Drosophila mauritiana); test: […], room temperature, 20 mM Tris pH 7.5, 0.3 M KCl, 1 mM DTT
[2] = biological target: Mos1 transposase (containing the solubilizing mutation T216A), hydrogenated (Drosophila mauritiana); test: SAXS + SANS
[3] = biological target: Mos1 transposase (containing the solubilizing mutation T216A), hydrogenated (Drosophila mauritiana); test: SAXS + SANS; remark: listed apart in the source
[4] = biological target: Mos1 transposase (containing the solubilizing mutation T216A), hydrogenated (Drosophila mauritiana); test: SEC-MALS
[5] = biological target: N130 Mos1 (the N-terminal 130 amino acids of Mos1 transposase, DNA-binding domain) (Drosophila mauritiana); test: SEC-MALS
D-Mos1 transposase = biological target: T1, D-Mos1 transposase (UniProt Q7JQ07 1-345, T216A); test: SANS contrast variation
T1 sequence: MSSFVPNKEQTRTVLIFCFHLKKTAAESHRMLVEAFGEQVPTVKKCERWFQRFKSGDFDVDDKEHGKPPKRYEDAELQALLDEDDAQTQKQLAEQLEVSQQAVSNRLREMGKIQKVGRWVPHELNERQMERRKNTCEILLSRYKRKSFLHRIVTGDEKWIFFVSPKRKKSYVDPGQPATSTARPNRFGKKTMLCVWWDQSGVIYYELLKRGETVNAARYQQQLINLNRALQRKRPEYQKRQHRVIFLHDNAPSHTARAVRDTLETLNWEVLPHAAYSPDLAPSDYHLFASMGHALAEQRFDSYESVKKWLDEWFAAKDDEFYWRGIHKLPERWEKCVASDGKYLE

H-Mos1 transposase = biological target: T2, H-Mos1 transposase (UniProt Q7JQ07 1-345, T216A)
T2 sequence: T1 sequence

Mos1 transposase (containing the solubilizing mutation T216A), hydrogenated (enzyme)
stoichiometry N [1]: 2 | stoichiometry N [2]: 2 | stoichiometry N [3]: 2 | stoichiometry N [4]: 2

N130 Mos1 (the N-terminal 130 amino acids of Mos1 transposase, DNA-binding domain) (domain or fragment)
stoichiometry N [5]: 2 and 4

B1: 50-mer IR DNA (SEC2 duplex) (dsDNA)
DNA 1: TTTAAAAAAAACGACATTTCATACTTGTACACCTGATAGTTTCTATATTC
DNA 2: GAATATAGAAACTATCAGGTGTACAAGTATGAAATGTCGTTTTTTTTAAA
binding result (D-Mos1 transposase): binds | binding result (H-Mos1 transposase): binds
